According to patent US20210268016A1 (YALE UNIVERSITY, published 2021):

Target: biotinylated Aβ1-42 oligomers (Aßo) prepared from biotinylated synthetic Aβ1-42 peptide (human)
Experiment: biolayer interferometry, biotinylated Aßo on streptavidin sensor

B1: recombinant full-length human PrP^C (AA23-231) (receptor)
chain: not shown
binding result: binds
